Data from publication PMC10117100.

Biological target: Gluc1-E2F4 (human), Q16254
Experiment: split reporter (BiFC, NanoBiT); Gaussia princeps protein complementation assay (GPCA): Gluc1 and Gluc2 N-terminal fusions co-transfected in HEK293T, luminescence of lysates after 48 h as normalized luminescence ratio (NLR); pairs count as interacting if NLR is above 5
Conditions: remark: other sources report otherwise

Chain of Gluc1-E2F4 (human), Q16254 (Q16254 whole entry, the tested form may be a part): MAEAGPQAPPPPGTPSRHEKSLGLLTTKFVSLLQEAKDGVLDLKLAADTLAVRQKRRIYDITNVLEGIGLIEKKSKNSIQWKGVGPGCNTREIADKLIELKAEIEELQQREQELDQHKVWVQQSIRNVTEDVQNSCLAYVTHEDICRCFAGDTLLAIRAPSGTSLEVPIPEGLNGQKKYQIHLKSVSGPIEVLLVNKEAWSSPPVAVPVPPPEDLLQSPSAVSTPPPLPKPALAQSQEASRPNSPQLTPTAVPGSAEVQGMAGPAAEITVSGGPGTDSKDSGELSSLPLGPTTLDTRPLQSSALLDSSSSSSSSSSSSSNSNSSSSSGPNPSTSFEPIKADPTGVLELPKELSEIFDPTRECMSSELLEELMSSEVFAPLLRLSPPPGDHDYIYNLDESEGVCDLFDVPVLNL

B1: Gluc2-p130, Q08999 1-1139 (natural protein)
chain: MPSGGDQSPPPPPPPPAAAASDEEEEDDGEAEDAAPPAESPTPQIQQRFDELCSRLNMDEAARAEAWDSYRSMSESYTLEGNDLHWLACALYVACRKSVPTVSKGTVEGNYVSLTRILKCSEQSLIEFFNKMKKWEDMANLPPHFRERTERLERNFTVSAVIFKKYEPIFQDIFKYPQEEQPRQQRGRKQRRQPCTVSEIFHFCWVLFIYAKGNFPMISDDLVNSYHLLLCALDLVYGNALQCSNRKELVNPNFKGLSEDFHAKDSKPSSDPPCIIEKLCSLHDGLVLEAKGIKEHFWKPYIRKLYEKKLLKGKEENLTGFLEPGNFGESFKAINKAYEEYVLSVGNLDERIFLGEDAEEEIGTLSRCLNAGSGTETAERVQMKNILQQHFDKSKALRISTPLTGVRYIKENSPCVTPVSTATHSLSRLHTMLTGLRNAPSEKLEQILRTCSRDPTQAIANRLKEMFEIYSQHFQPDEDFSNCAKEIASKHFRFAEMLYYKVLESVIEQEQKRLGDMDLSGILEQDAFHRSLLACCLEVVTFSYKPPGNFPFITEIFDVPLYHFYKVIEVFIRAEDGLCREVVKHLNQIEEQILDHLAWKPESPLWEKIRDNENRVPTCEEVMPPQNLERADEICIAGSPLTPRRVTEVRADTGGLGRSITSPTTLYDRYSSPPASTTRRRLFVENDSPSDGGTPGRMPPQPLVNAVPVQNVSGETVSVTPVPGQTLVTMATATVTANNGQTVTIPVQGIANENGGITFFPVQVNVGGQAQAVTGSIQPLSAQALAGSLSSQQVTGTTLQVPGQVAIQQISPGGQQQKQGQSVTSSSNRPRKTSSLSLFFRKVYHLAAVRLRDLCAKLDISDELRKKIWTCFEFSIIQCPELMMDRHLDQLLMCAIYVMAKVTKEDKSFQNIMRCYRTQPQARSQVYRSVLIKGKRKRRNSGSSDSRSHQNSPTELNKDRTSRDSSPVMRSSSTLPVPQPSSAPPTPTRLTGANSDMEEEERGDLIQFYNNIYIKQIKTFAMKYSQANMDAPPLSPYPFVRTGSPRRIQLSQNHPVYISPHKNETMLSPREKIFYYFSNSPSKRLREINSMIRTGETPTKKRGILLEDGSESPAKRICPENHSALLRRLQDVANDRGSH
  normalized luminescence ratio (NLR): > 40
